Data reported in patent US20120328599A1.

How the values were obtained:
[1] = molecular target: wt-FGFR1 kinase domain (aa 458-765) (human) (UniProt P11362)
[2] = molecular target: FGFR1-RE kinase domain (R577E mutant, aa 458-765) (human) (UniProt P11362)

Substance	in vitro trans phosphorylation of purified kinase domains with ATP and Mg2+, native gel [1]	in vitro trans phosphorylation of purified kinase domains with ATP and Mg2+, native gel [2]
wt-FGFR1 kinase domain (aa 458-765) (from UniProt P11362) (enzyme)	< 10 min	–
FGFR1-RE kinase domain (R577E mutant, aa 458-765) (from UniProt P11362) (enzyme)	–	< 30 min
